Source: IntAct's records for PubMed 15302918

B1: Nuclear receptor subfamily 2 group C member 2 (Homo sapiens), P49116 (parent)
chain: MTSPSPRIQIISTDSAVASPQRIQIVTDQQTGQKIQIVTAVDASGSPKQQFILTSPDGAGTGKVILASPETSSAKQLIFTTSDNLVPGRIQIVTDSASVERLLGKTDVQRPQVVEYCVVCGDKASGRHYGAVSCEGCKGFFKRSVRKNLTYSCRSNQDCIINKHHRNRCQFCRLKKCLEMGMKMESVQSERKPFDVQREKPSNCAASTEKIYIRKDLRSPLIATPTFVADKDGARQTGLLDPGMLVNIQQPLIREDGTVLLATDSKAETSQGALGTLANVVTSLANLSESLNNGDTSEIQPEDQSASEITRAFDTLAKALNTTDSSSSPSLADGIDTSGGGSIHVISRDQSTPIIEVEGPLLSDTHVTFKLTMPSPMPEYLNVHYICESASRLLFLSMHWARSIPAFQALGQDCNTSLVRACWNELFTLGLAQCAQVMSLSTILAAIVNHLQNSIQEDKLSGDRIKQVMEHIWKLQEFCNSMAKLDIDGYEYAYLKAIVLFSPDHPGLTSTSQIEKFQEKAQMELQDYVQKTYSEDTYRLARILVRLPALRLMSSNITEELFFTGLIGNVSIDSIIPYILKMETAEYNGQITGASL
partner: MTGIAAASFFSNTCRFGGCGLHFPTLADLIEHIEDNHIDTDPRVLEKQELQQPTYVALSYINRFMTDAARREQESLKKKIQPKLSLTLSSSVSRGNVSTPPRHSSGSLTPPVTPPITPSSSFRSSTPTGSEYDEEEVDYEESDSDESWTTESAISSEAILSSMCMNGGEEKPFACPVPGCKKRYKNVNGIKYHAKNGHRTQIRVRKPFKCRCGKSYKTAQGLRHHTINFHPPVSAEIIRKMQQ
B2: Juxtaposed with another zinc finger protein 1 (Homo sapiens), Q86VZ6 (parent)
chain: B1 partner
partner: B1 chain

Variants of: B1
Conditions: with jazf1_human JAZF1, Q86VZ6

Row | effect of a mutation on the interaction | Variant
1 | decreasing interaction strength | MTSPSPRIQIISTDSAVASPQRIQIVTDQQTGQKIQIVTAVDASGSPKQQFILTSPDGAGTGKVILASPETSSAKQLIFTTSDNLVPGRIQIVTDSASVERLLGKTDVQRPQVVEYCVVCGDKASGRHYGAVSCEGCKGFFKRSVRKNLTYSCRSNQDCIINKHHRNRCQFCRLKKCLEMGMKMESVQSERKPFDVQREKPSNCAASTEKIYIRKDLRSPLIATPTFVADKDGARQTGLLDPGMLVNIQQPLIREDGTVLLATDSKAETSQGALGTLANVVTSLANLSESLNNGDTSEIQPEDQSASEITRAFDTLAKALNTTDSSSSPSLADGIDTSGGGSIHVISRDQSTPIIEVEGPLLSDTHVTFKLTMPSPMPEYLNVHYICESASRLLFLSMHWARSIPAFQALGQDCNTSLVRACWNELFTLGLAQCAQVMSLSTILAAIVNHLQNSIQEDKLSGDRIKQVMEHIWKLQEFCNSMAKLDIDGYEYAYLKAIVLFSPDHPGLTSTSQIEKFQEKAQMELQDYVQKTYSEDTYRLARILVRLPALRLMSSNITEELFFTGLIGNVSIDSINPYILKMETAEYNGQITGASL [I576N]

Variants of: B2
Conditions: with nr2c2_human NR2C2, P49116

Row | effect of a mutation on the interaction | Variant
2 | decreasing interaction strength | MTGIAAASFFSNTCRFGGCGLHFPTLADLIEHIEDNHIDTDPRVLEKQELQQPTYVALSYINRFMTDAARREQESPKKKIQPKLSLTLSSSVSRGNVSTPPRHSSGSLTPPVTPPITPSSSFRSSTPTGSEYDEEEVDYEESDSDESWTTESAISSEAILSSMCMNGGEEKPFACPVPGCKKRYKNVNGIKYHAKNGHRTQIRVRKPFKCRCGKSYKTAQGLRHHTINFHPPVSAEIIRKMQQ [L76P]
3 | with no effect | MTGIAAASFFSNTCRFGGCGLHFPTLADLIEHIEDNHIDTDPRVLEPQELQQPTYVALSYINRFMTDAARREQESLKKKIQPKLSLTLSSSVSRGNVSTPPRHSSGSLTPPVTPPITPSSSFRSSTPTGSEYDEEEVDYEESDSDESWTTESAISSEAILSSMCMNGGEEKPFACPVPGCKKRYKNVNGIKYHAKNGHRTQIRVRKPFKCRCGKSYKTAQGLRHHTINFHPPVSAEIIRKMQQ [K47P]
4 | with no effect | MTGIAAASFFSNTCRFGGCGLHFPTLADLIEHIEDNHIDTDPRVLEKQELQQPTYVALSYINRFMTDAPRREQESLKKKIQPKLSLTLSSSVSRGNVSTPPRHSSGSLTPPVTPPITPSSSFRSSTPTGSEYDEEEVDYEESDSDESWTTESAISSEAILSSMCMNGGEEKPFACPVPGCKKRYKNVNGIKYHAKNGHRTQIRVRKPFKCRCGKSYKTAQGLRHHTINFHPPVSAEIIRKMQQ [A69P]
5 | disrupting interaction strength | MTGIAAASFFSNTCRFGGCGLHFPTLADLIEHIEDNHIDTDPRVLEKQELQQPTYVALSDINRFMTDAARREQESLKKKIQPKLSLTLSSSVSRGNVSTPPRHSSGSLTPPVTPPITPSSSFRSSTPTGSEYDEEEVDYEESDSDESWTTESAISSEAILSSMCMNGGEEKPFACPVPGCKKRYKNVNGIKYHAKNGHRTQIRVRKPFKCRCGKSYKTAQGLRHHTINFHPPVSAEIIRKMQQ [Y60D]
